# Patent US6869778
# T1: lys-plasminogen, P00747
# T1 chain: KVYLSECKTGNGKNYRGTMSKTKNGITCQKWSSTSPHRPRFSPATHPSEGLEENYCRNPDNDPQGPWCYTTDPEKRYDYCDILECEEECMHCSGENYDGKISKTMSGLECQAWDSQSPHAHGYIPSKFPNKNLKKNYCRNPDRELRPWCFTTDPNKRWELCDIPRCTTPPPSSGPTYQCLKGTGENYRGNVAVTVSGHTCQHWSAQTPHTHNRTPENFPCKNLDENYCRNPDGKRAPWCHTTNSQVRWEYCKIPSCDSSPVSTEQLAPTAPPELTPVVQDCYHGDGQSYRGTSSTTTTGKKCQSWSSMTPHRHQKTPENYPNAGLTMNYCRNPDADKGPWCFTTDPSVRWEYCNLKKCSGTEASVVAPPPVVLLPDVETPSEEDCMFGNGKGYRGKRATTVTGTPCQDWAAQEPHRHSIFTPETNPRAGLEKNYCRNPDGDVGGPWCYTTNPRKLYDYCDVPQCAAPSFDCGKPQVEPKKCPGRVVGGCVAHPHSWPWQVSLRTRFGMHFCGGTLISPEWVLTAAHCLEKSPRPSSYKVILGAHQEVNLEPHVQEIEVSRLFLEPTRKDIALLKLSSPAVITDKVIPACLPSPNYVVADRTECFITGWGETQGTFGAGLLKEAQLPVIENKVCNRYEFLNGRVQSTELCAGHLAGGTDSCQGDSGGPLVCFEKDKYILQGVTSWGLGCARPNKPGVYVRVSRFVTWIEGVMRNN
# B1: t-PA/R275E,K429Y, single-chain form (protein)
# chain: SYQVICRDEKTQMIYQQHQSWLRPVLRSNRVEYCWCNSGRAQCHSVPVKSCSEPRCFNGGTCQQALYFSDFVCQCPEGFAGKCCEIDTRATCYEDQGISYRGTWSTAESGAECTNWNSSALAQKPYSGRRPDAIRLGLGNHNYCRNPDRDSKPWCYVFKAGKYSSEFCSTPACSEGNSDCYFGNGSAYRGTHSLTESGASCLPWNSMILIGKVYTAQNPSAQALGLGKHNYCRNPDGDAKPWCHVLKNRRLTWEYCDVPSCSTCGLRQYSQPQFEIKGGLFADIASHPWQAAIFAKHRRSPGERFLCGGILISSCWILSAAHCFQERFPPHHLTVILGRTYRVVPGEEEQKFEVEKYIVHKEFDDDTYDNDIALLQLKSDSSRCAQESSVVRTVCLPPADLQLPDWTECELSGYGKHEALSPFYSERLYEAHVRLYPSSRCTSQHLLNRTVTDNMLCAGDTRSGGPQANLHDACQGDSGGPLVCLNDGRMTLVGIISWGLGCGQKDVPGVYTKVTNYLDWIRDNMRP
# Assays:
# [1] = target: stimulatory thirteen amino acid peptide P368
# lys-plasminogen, P00747 = target: T1, lys-plasminogen, P00747
# [2] = target: soluble fibrin monomers (DESAFIB)
protein,measurement,setting,value
B1,stimulation of plasminogen activation by co-factor (indirect chromogenic assay),[1],virtually nonresponsive
same,stimulation of plasminogen activation by co-factor (indirect chromogenic assay),fibrinogen,virtually nonresponsive
same,Kcat of plasminogen activation in the absence of a cofactor,"lys-plasminogen, P00747",0.00046 s⁻¹
same,Kcat of plasminogen activation in the presence of fibrin,"lys-plasminogen, P00747",0.1 s⁻¹
same,Kcat/Km of plasminogen activation in the absence of a cofactor,"lys-plasminogen, P00747",78 M⁻¹ s⁻¹
same,Kcat/Km of plasminogen activation in the presence of fibrin,"lys-plasminogen, P00747",2e+06 M⁻¹ s⁻¹
same,Km of plasminogen activation in the absence of a cofactor,"lys-plasminogen, P00747",5.9 µM
same,Km of plasminogen activation in the presence of fibrin,"lys-plasminogen, P00747",0.07 µM
same,"fold reduction of activity toward plasminogen without co-factor, against single chain t-PA/R275E","lys-plasminogen, P00747",reduced by a factor of 17
same,percent of the activity of single chain t-PA/R275E toward plasminogen in the presence of fibrin,"lys-plasminogen, P00747",approximately 40% of the activity of single chain t-PA/R275E
same,Fold stimulation of kcat/Km by fibrin,[2],26000 fold
same,fibrin selectivity factor (specific activity in the presence of fibrin over that in the presence of fibrinogen),[2],"The fibrin selectivity factor for single chain t-PA/R275E,K429Y, however, is 146"
same,stimulation of plasminogen activation by co-factor (indirect chromogenic assay),[2],dramatically stimulated by fibrin monomers
